Results on six molecules are retold here after patent US12269859B2, “Synthetic immune receptors and methods of use thereof” (Angeles Therapeutics, Inc., priority 2016, dated 2025).

This assay concerns target antigen-expressing cell line. Briefly: Jurkat NFAT-GFP assay, coculture with target cell lines expressing the respective target antigen (summary Table 10A). The class given is cell-based, human. Also noted: key: The signs +/−, +, 2+ etc. after the name of the cell lines indicate the relative degree of positivity on the Jurkat-NFAT-GFP assay as measured by the % GFP positive cells; +: relative degree of positivity on the Jurkat-NFAT-GFP assay as measured by the % GFP positive cells; 2+: relative degree of positivity on the Jurkat-NFAT-GFP assay as measured by the % GFP positive cells. Summed up:
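Coculture of SIR-bearing Jurkat NFAT-GFP reporters with target cells, ~1:2 E:T, ~4–18 h. FACS quantified % GFP+ cells, ranked semi-quantitatively against parental Jurkat-NFAT-GFP.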

B1: 040716-H06 (protein)
chain: MALPVTALLLPLALLLHAARPDEFDVQLVESGGGLVQPGGSLRLSCAASGSIGGLNAMAWYRQAPGKERELVAGIFGVGSTRYADSVKGRFTISRDNSKNTVYLQMNSLRPEDTAVYYCRMSSVTRGSSDYWGQGTLVTVSSLEGGGGSGGGGSGGGGSGSGGSGSGGSGSGGSGSGGSFEVQLVESGGSLVQPGGSLRLSCAASGFTFDDYAMSWVRQVPGKGLEWVSSINWSGTHTDYADSVKGRFTISRNNANNTLYLQMNSLKSEDTAVYYCAKNWRDAGTTWFEKSGSAGQGTQVTVSSTREQKLISEEDGSGIQNPDPAVYQLRDSKSSDKSVCLFTDFDSQTNVSQSKDSDVYITDKCVLDMRSMDFKSNSAVAWSNKSDFACANAFNNSIIPEDTFFPSSDVPCDVKLVEKSFETDTNLNFQNLSVIGFRILLLKVAGFNLLMTLRLWSSRAKRSGSGVKQTLNFDLLKLAGDVESNPGPSRGHMTEYKPTVRLATRDDVPRAVRTLAAAFADYPATRHTVDPDRHIERVTELQELFLTRVGLDIGKVWVADDGAAVAVWTTPESVEAGAVFAEIGPRMAELSGSRLAAQQQMEGLLAPHRPKEPAWFLATVGVSPDHQGKGLGSAVVLPGVEAAERAGVPAFLETSAPRNLPFYERLGFTVTADVEVPEGPRTWCMTRKPGA
modifications: Polynucleotide encoding a Synthetic Immune Receptor (SIR)
B1: the “NFAT-GFP ASSAY Positive Cell lines” value (coculture with MCF7 cells) is recorded as “MCF7 (+), SKBR3 (+)” and the “NFAT-GFP ASSAY Positive Cell lines” value (coculture with SKBR3 cells) is “MCF7 (+), SKBR3 (+)”.

B2: 101216-Y07 (protein)
chain: MALPVTALLLPLALLLHAARPDIQMTQSPSSLSASVGDRVTITCRASQGISSWLAWYQQKPEKAPKSLIYAASSLQSGVPSRFSGSGSGTDFTLTISSLQPEDFATYYCQQYNSYPPTFGGGTKVEIKLEGKPIPNPLLGLDSTGSGEDLKNVFPPEVAVFEPSKAEIAHTQKATLVCLATGFYPDHVELSWWVNGKEVHSGVCTDPQPLKEQPALNDSRYCLSSRLRVSATFWQNPRNHFRCQVQFYGLSENDEWTQDRAKPVTQIVSAEAWGRADCGITSASYHQGVLSATILYEILLGKATLYAVLVSALVLMAMVKRKDSRGRAKRSGSGATNFSLLKQAGDVEENPGPTSMDWIWRILFLVGAATGAHSFEEVQLVESGGGLVQPGESLRLSCVASGFTFSRYKMNWVRQAPGKGLEWVSYISRSGRDIYYADSVKGRFTISRDNAKNSLYLQMNSLRDEDTAVYYCAGTVTTYYYFGMDVWGHGTTVTVSSTREQKLISEEDGSGIQNPDPAVYQLRDSKSSDKSVCLFTDFDSQTNVSQSKDSDVYITDKCVLDMRSMDFKSNSAVAWSNKSDFACANAFNNSIIPEDTFFPSSDVPCDVKLVEKSFETDTNLNFQNLSVIGFRILLLKVAGFNLLMTLRLWSSRAKRSGSGVKQTLNFDLLKLAGDVESNPGPSRGHMTEYKPTVRLATRDDVPRAVRTLAAAFADYPATRHTVDPDRHIERVTELQELFLTRVGLDIGKVWVADDGAAVAVWTTPESVEAGAVFAEIGPRMAELSGSRLAAQQQMEGLLAPHRPKEPAWFLATVGVSPDHQGKGLGSAVVLPGVEAAERAGVPAFLETSAPRNLPFYERLGFTVTADVEVPEGPRTWCMTRKPGA
modifications: Synthetic Immune Receptor (SIR)
B2: the “NFAT-GFP ASSAY Positive Cell lines” value reads like this: (coculture with H460 cells) “H460 (+/−), HCT116”; (coculture with HCT116 cells) “(+/−)”.

B3: 021517-I01 (protein)
chain: MALPVTALLLPLALLLHAARPLEGKPIPNPLLGLDSTGSGEDLKNVFPPEVAVFEPSKAEIAHTQKATLVCLATGFYPDHVELSWWVNGKEVHSGVCTDPQPLKEQPALNDSRYCLSSRLRVSATFWQNPRNHFRCQVQFYGLSENDEWTQDRAKPVTQIVSAEAWGRADCGITSASYHQGVLSATILYEILLGKATLYAVLVSALVLMAMVKRKDSRGRAKRSGSGATNFSLLKQAGDVEENPGPTSMALPVTALLLPLALLLHAARPQSVVTQPPSVSGAPGQRVTISCTGSSSNIGAGYDVHWYQQLPGTAPKLLIYGNSNRPSGVPDRFSGSKSGTSASLAITGLQAEDEADYYCQSYDSSLSGSYVFGTGTKLTVLGGGGGSGGGGSGGGGSEVQLVETGGNLVQPGASLRLSCAASGFSFSGTAMHWVRQAPGKGLEWVSTISSTGRSTYYRDSVKGRFTISRDNSKNTLYLQMNSLRGEDTAVYYCARVSFDYWGQGTLVTVSSTREQKLISEEDGSGIQNPDPAVYQLRDSKSSDKSVCLFTDFDSQTNVSQSKDSDVYITDKCVLDMRSMDFKSNSAVAWSNKSDFACANAFNNSIIPEDTFFPSSDVPCDVKLVEKSFETDTNLNFQNLSVIGFRILLLKVAGFNLLMTLRLWSSRAKRSGSGVKQTLNFDLLKLAGDVESNPGPSRGHMTEYKPTVRLATRDDVPRAVRTLAAAFADYPATRHTVDPDRHIERVTELQELFLTRVGLDIGKVWVADDGAAVAVWTTPESVEAGAVFAEIGPRMAELSGSRLAAQQQMEGLLAPHRPKEPAWFLATVGVSPDHQGKGLGSAVVLPGVEAAERAGVPAFLETSAPRNLPFYERLGFTVTADVEVPEGPRTWCMTRKPGA
For B3, the “NFAT-GFP ASSAY Positive Cell lines” value (coculture with L363 cells) is “L363 (+/−)”.

B4: 031517-Q04 (protein)
chain: MALPVTALLLPLALLLHAARPLEGKPIPNPLLGLDSTGSGEDLKNVFPPEVAVFEPSKAEIAHTQKATLVCLATGFYPDHVELSWWVNGKEVHSGVCTDPQPLKEQPALNDSRYCLSSRLRVSATFWQNPRNHFRCQVQFYGLSENDEWTQDRAKPVTQIVSAEAWGRADCGITSASYHQGVLSATILYEILLGKATLYAVLVSALVLMAMVKRKDSRGRAKRSGSGATNFSLLKQAGDVEENPGPTSMALPVTALLLPLALLLHAARPQSVVTQPASVSGSPGQSITISCTGTSSDVGGYNYVSWYQQHPGKAPKLMIYDVSKRPSGVSNRFSGSKSGNTASLTISGLQAEDEADYYCSSYTSSSTLVFGGGTKLTVLGGGGGSGGGGSGGGGSEVQLVESGGAFVQPGGSLRLSCAASGFTFSSYAMTWVRQAPGKGLEWVSTISGRGRSTFYADSVKGRFTISRDNSKNTLYLQMNSLRAEDTAVYYCARYYHAGAFDLWGQGTLVTVSSTREQKLISEEDGSGIQNPDPAVYQLRDSKSSDKSVCLFTDFDSQTNVSQSKDSDVYITDKCVLDMRSMDFKSNSAVAWSNKSDFACANAFNNSIIPEDTFFPSSDVPCDVKLVEKSFETDTNLNFQNLSVIGFRILLLKVAGFNLLMTLRLWSSRAKRSGSGVKQTLNFDLLKLAGDVESNPGPSRGHMTEYKPTVRLATRDDVPRAVRTLAAAFADYPATRHTVDPDRHIERVTELQELFLTRVGLDIGKVWVADDGAAVAVWTTPESVEAGAVFAEIGPRMAELSGSRLAAQQQMEGLLAPHRPKEPAWFLATVGVSPDHQGKGLGSAVVLPGVEAAERAGVPAFLETSAPRNLPFYERLGFTVTADVEVPEGPRTWCMTRKPGA
As for B4, the “NFAT-GFP ASSAY Positive Cell lines” value (coculture with L363 cells) was “L363 (+/−)”.

B5: 040716-B03 (protein)
chain: MALPVTALLLPLALLLHAARPLEGKPIPNPLLGLDSTGSGEDLKNVFPPEVAVFEPSKAEIAHTQKATLVCLATGFYPDHVELSWWVNGKEVHSGVCTDPQPLKEQPALNDSRYCLSSRLRVSATFWQNPRNHFRCQVQFYGLSENDEWTQDRAKPVTQIVSAEAWGRADCGITSASYHQGVLSATILYEILLGKATLYAVLVSALVLMAMVKRKDSRGRAKRSGSGATNFSLLKQAGDVEENPGPTSMALPVTALLLPLALLLHAARPDEFDVQLVESGGGLVQPGGSLRLSCAASGSIGGLNAMAWYRQAPGKERELVAGIFGVGSTRYADSVKGRFTISRDNSKNTVYLQMNSLRPEDTAVYYCRMSSVTRGSSDYWGQGTLVTVSSLEGGGGSGGGGSGGGGSGSGGSGSGGSGSGGSGSGGSFEVQLVESGGSLVQPGGSLRLSCAASGFTFDDYAMSWVRQVPGKGLEWVSSINWSGTHTDYADSVKGRFTISRNNANNTLYLQMNSLKSEDTAVYYCAKNWRDAGTTWFEKSGSAGQGTQVTVSSTREQKLISEEDGSGIQNPDPAVYQLRDSKSSDKSVCLFTDFDSQTNVSQSKDSDVYITDKCVLDMRSMDFKSNSAVAWSNKSDFACANAFNNSIIPEDTFFPSSDVPCDVKLVEKSFETDTNLNFQNLSVIGFRILLLKVAGFNLLMTLRLWSSRAKRSGSGVKQTLNFDLLKLAGDVESNPGPSRGHMTEYKPTVRLATRDDVPRAVRTLAAAFADYPATRHTVDPDRHIERVTELQELFLTRVGLDIGKVWVADDGAAVAVWTTPESVEAGAVFAEIGPRMAELSGSRLAAQQQMEGLLAPHRPKEPAWFLATVGVSPDHQGKGLGSAVVLPGVEAAERAGVPAFLETSAPRNLPFYERLGFTVTADVEVPEGPRTWCMTRKPGA
modifications: Synthetic Immune Receptor (SIR)
Take B5: the “NFAT-GFP ASSAY Positive Cell lines” value is “(+), A431 (+)” (coculture with A431 cells); “MCF7 (+/−), SKBR3” (coculture with MCF7 cells); “(+), A431 (+)” (coculture with SKBR3 cells).

B6: 060717-L04 (protein)
chain: MALPVTALLLPLALLLHAARPQSVVTQPASVSGSPGQSITISCTGTSSDVGGYNYVSWYQQHPGKAPKLMIYDVSKRPSGVSNRFSGSKSGNTASLTISGLQAEDEADYYCSSYTSSSTLVFGGGTKLTVLGLEIQNPDPAVYQLRDSKSSDKSVCLFTDFDSQTNVSQSKDSDVYITDKCVLDMRSMDFKSNSAVAWSNKSDFACANAFNNSIIPEDTFFPSSDVPCDVKLVEKSFETDTNLNFQNLSVIGFRILLLKVAGFNLLMTLRLWSSRAKRSGSGVKQTLNFDLLKLAGDVESNPGPTSMDWIWRILFLVGAATGAHSFEEVQLVESGGAFVQPGGSLRLSCAASGFTFSSYAMTWVRQAPGKGLEWVSTISGRGRSTFYADSVKGRFTISRDNSKNTLYLQMNSLRAEDTAVYYCARYYHAGAFDLWGQGTLVTVSSTREDLKNVFPPEVAVFEPSKAEIAHTQKATLVCLATGFYPDHVELSWWVNGKEVHSGVCTDPQPLKEQPALNDSRYCLSSRLRVSATFWQNPRNHFRCQVQFYGLSENDEWTQDRAKPVTQIVSAEAWGRADCGITSASYHQGVLSATILYEILLGKATLYAVLVSALVLMAMVKRKDSRGRAKRSGSGATNFSLLKQAGDVEENPGPSRGHMTEYKPTVRLATRDDVPRAVRTLAAAFADYPATRHTVDPDRHIERVTELQELFLTRVGLDIGKVWVADDGAAVAVWTTPESVEAGAVFAEIGPRMAELSGSRLAAQQQMEGLLAPHRPKEPAWFLATVGVSPDHQGKGLGSAVVLPGVEAAERAGVPAFLETSAPRNLPFYERLGFTVTADVEVPEGPRTWCMTRKPGA
As to B6, the “NFAT-GFP ASSAY Positive Cell lines” value by setting is: (coculture with L363 cells) 2+; (coculture with U266 cells) “+”.
